Assays:
[1] = target: PGCC(95-104) epitope peptide (Ac-…-NH2), pigeon cytochrome C (pigeon); test: ELISA, coated PGCC(95-104) peptide, control mouse serum, anti-mouse IgG1 or IgG2a detection
[2] = target: HIV gp160(843-855) peptide (HIV); test: ELISA, coated HIV gp160(843-855) peptide, control mouse serum, anti-mouse IgG1 or IgG2a detection

Substance | ELISA absorbance at 450 nm, serum dilution 1:20 (absorbance (450 nm)) [1] | ELISA absorbance at 450 nm, serum dilution 1:60 (absorbance (450 nm)) [1] | ELISA absorbance at 450 nm, serum dilution 1:180 (absorbance (450 nm)) [1] | ELISA absorbance at 450 nm, serum dilution 1:540 (absorbance (450 nm)) [1] | ELISA absorbance at 450 nm, serum dilution 1:1620 (absorbance (450 nm)) [1] | ELISA absorbance at 450 nm, serum dilution 1:4860 (absorbance (450 nm)) [1] | ELISA absorbance at 450 nm, serum dilution 1:20 (absorbance (450 nm)) [2] | ELISA absorbance at 450 nm, serum dilution 1:60 (absorbance (450 nm)) [2] | ELISA absorbance at 450 nm, serum dilution 1:180 (absorbance (450 nm)) [2] | ELISA absorbance at 450 nm, serum dilution 1:540 (absorbance (450 nm)) [2]
Serum of mice given no immunogen (control of Table 22.2) (antibody) | 0.042 | 0.004 | -0.003 | 0.007 | 0.006 | 0.005 | – | – | – | –
Serum of mice given no immunogen (control of Table 22.1) (antibody) | 0.105 | 0.72 | 0.049 | 0.036 | – | – | – | – | – | –
Serum of mice given no immunogen (control of Table 22.3) (antibody) | – | – | – | – | – | – | 0.084 | 0.045 | 0.004 | -0.003

From patent US20080305122A1
